The target of the assay is DS protein (Dengue-HBsAg fusion: EDIII of DENV-1, -3, -4 and -2 joined in tandem to the HBV S antigen) (dengue virus 1 (West Pac-74) | dengue virus 3 (H87/56) | dengue virus 4 (H241-P) | dengue virus 2 (PR159-S1/69) | hepatitis B virus (adw serotype)). The assay can be described thus: densitometry of a Western blot of the purified VLPs; Western blot of purified DSV4 developed with anti-S mAb 5S; ratio from the peak areas of DS, S and S dimer (ImageJ). For orientation: Immunoblotting shows a protein as a band on a membrane.

A word on the stoichiometry N: it is the number of molecules, sites or subunits per partner or assembly.

Consider “Hepatitis B virus surface (S) antigen, unfused (natural protein)”, for which the stoichiometry N was 4 S per DS.

Values taken from publication PMC5774828.
